Source: paper PMC4954776 (Nature chemical biology, 2013)
Where two headings read alike, the source gives them in different places.

What was measured:
[1] = molecular target: the molecule itself; experiment: AUC
[2] = molecular target: the molecule itself; experiment: AUC; remark: listed apart in the source

B1: BRAF^444-723 kinase domain with 16 solubilization mutations (domain or fragment)
chain: RDSSDDWEIPDGQITVGQRIGSGSFGTVYKGKWHGDVAVKMLNVTAPTPQQLQAFKNEVGVLRKTRHVNILLFMGYSTKPQLAIVTQWCEGSSLYHHLHASETKFEMKKLIDIARQTARGMDYLHAKSIIHRDLKSNNIFLHEDNTVKIGDFGLATVKSRWSGSHQFEQLSGSILWMAPEVIRMQDSNPYSFQSDVYAFGIVLYELMTGQLPYSNINNRDQIIEMVGRGSLSPDLSKVRSNCPKRMKRLMAECLKKKRDERPSFPRILAEIEELARELSG
Kd [1]: > 25 µM | Kd [2]: < 0.78 µM
